The record followed here is article PMC4622073 (mAbs, 2014).

Test [1] addresses T1, mST2-Fc fusion protein (unlabelled) (mouse, UniProt P14719 27-332).
T1 sequence: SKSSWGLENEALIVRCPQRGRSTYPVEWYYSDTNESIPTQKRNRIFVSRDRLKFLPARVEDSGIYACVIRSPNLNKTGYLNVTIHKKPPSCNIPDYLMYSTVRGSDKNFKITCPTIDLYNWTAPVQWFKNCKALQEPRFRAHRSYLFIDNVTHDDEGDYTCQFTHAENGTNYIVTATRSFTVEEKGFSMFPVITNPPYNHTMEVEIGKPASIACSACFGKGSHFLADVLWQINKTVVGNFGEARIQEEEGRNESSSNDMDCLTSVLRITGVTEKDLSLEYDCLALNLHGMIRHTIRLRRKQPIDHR
Put plainly: AlphaScreen or HTRF.

Test [2] has as its target T2, biotinylated mST2-Fc fusion protein (mouse, UniProt P14719 27-332, biotin (site not stated)).
T2 sequence: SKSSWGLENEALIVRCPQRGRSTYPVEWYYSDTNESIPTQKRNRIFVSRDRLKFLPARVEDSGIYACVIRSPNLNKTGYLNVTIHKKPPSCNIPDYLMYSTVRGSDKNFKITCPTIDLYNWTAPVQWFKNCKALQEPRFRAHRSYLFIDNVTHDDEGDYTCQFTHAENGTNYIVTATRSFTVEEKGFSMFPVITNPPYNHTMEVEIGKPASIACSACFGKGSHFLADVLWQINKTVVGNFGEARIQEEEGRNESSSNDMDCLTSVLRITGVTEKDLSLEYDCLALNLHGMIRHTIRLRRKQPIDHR
Briefly: AlphaScreen or HTRF. (Alpha assays give light when donor and acceptor beads are brought close together.)

B1: mouse interleukin-33 (mIL-33), amino acids 97-266, FLAG 10His tagged (ligand)
chain: SIQAFAASVDTLSIQGTSLLTQSPASLSTYNDQSVSFVLENGCYVINVDDSGKDQEQDQVLLRYYESPCPASQSGDGVDGKKLMVNMSPIKDTDIWLHANDKDYSVELQRGDVSPPEQAFFVLHKKSSDFVSFECKNLPGTYIGVKDNQLALVEEKDESCNNIMFKLSKI
Take B1: the binding result in test [1] and in test [2] was “binds” in each case.
